Test results as given in the RNAGym collection of RNA variant scans (doi:10.1101/gr.219683.116).

B1: mRNA-splicing (parent)
chain: AGUUGCUGCUGGGAGCUCCAGCACAGUGAAAUGGACAGAAGGGCAGAGCAA

Variants of: B1
Assay: exon inclusion enrichment index; higher = more inclusion; WT1 exon 5 minigene, HEK293

Compared with AGUUCGCGCCGGGAGCUCCAGCACAGUGAAAUGGACAGAACAGCAGAGCAA [G5C C6G U7C U10C G41C G42A], AGACAGGGAUGGGAGCUCCAGCACAGUGAAAUGGACAGAAGGGCAGAGCAA [U3A U4C G5A C6G U7G C9A] is lower in “exon inclusion enrichment index” value: 3 for the first, 0.0761 for the second.

Going from AGUUCGCGGAGGGAGCUCCAGCACAGUGAAAUGGACAGAAGGGCAGAGCAA [G5C C6G U7C C9G U10A] to AGUUCACACAGGUGGCUCCAGCACAGUGAAAUGGACAGAAGGGCAGAGCAA [G5C C6A U7C G8A U10A G13U A14G], the “exon inclusion enrichment index” value falls from 2.85 to 0.0515.

Compared with AGCAGCUGCUGGGAGCUCCAGCACAGUGAAAUGGACAGAAGGGCAGAGCAA [U3C U4A], AGUUACCACCGGGAGCUCCAGCACAGUGAAAUGGACAGAAGGGCCGAGCAA [G5A U7C G8A U10C A45C] is higher in “exon inclusion enrichment index” value: 0.0261 for the first, 2.28 for the second.

Going from AGUUGAAGAAGGGAGCUCCAGCACCUUGAAAUGGACAGAAGGGCAGAGCAA [C6A U7A C9A U10A A25C G26U] to AGUUAUAUAUGAGAGCUCCAGCACAGUGAAAUGGACAGAAGGGCAGAGCAA [G5A C6U U7A G8U C9A G12A], the “exon inclusion enrichment index” value falls from 1.21 to 0.0361.

Going from AGUUGCUGCUGGGAGCUCCAGCACAGUGAAAUGGACCCAAGGGCAGAGCAA [A37C G38C] to AGUUCGCGCCGGGAGCUCCAGCACUCUGAAAUGGACAGAAGGGCAGAGCAA [G5C C6G U7C U10C A25U G26C], the “exon inclusion enrichment index” value rises from 0.217 to 3.41.

Going from AGUUGACGACGGGAGCUCCAGCACAGUGAAAUGGACACAAGGGCAGAGCAA [C6A U7C C9A U10C G38C] to AGUUACCACCGGGAGCUAAAGCACAGUGAAAUGGACAGAAGGGCAGAGCAA [G5A U7C G8A U10C C18A C19A], the “exon inclusion enrichment index” value falls from 2.15 to 0.451.

First: AGUUUCUUUUGGGAGCUCCAGCACAGUGAAAUGGACAGAAGGGCAGAACAA [G5U G8U C9U G48A]
Second: AGUUGACGACGCGAGCUCCAGCACAGUGAAAUGGACAGAAGGGCAGAGCAA [C6A U7C C9A U10C G12C]
The “exon inclusion enrichment index” value of the first is lower: 0.314 for the first, 3.68 for the second.

First: AGUUGCUGCUGGGCCCUCCAGCACAGUGAAAUGGACAGAAGGGCAGAGCAA [A14C G15C]
Second: AGUUGCUGCUGGGAGCUCCAGCACAGUGAAAUGGGCAGAAGGGCAGAGCAA [A35G]
The “exon inclusion enrichment index” value of the first is lower: 0.0378 for the first, 0.0494 for the second.

Compared with AGUUUCUUUUGGGAGCUCCAGCACAAAGAAAUGGACAGAAGGGCAGAGCAA [G5U G8U C9U G26A U27A], AGUUGAAGCCGGGAGCUCCAGCACAGUGAAAUGGACAGAAGGGCAGAGCAA [C6A U7A U10C] is higher in “exon inclusion enrichment index” value: 0.24 for the first, 2.53 for the second.

Compared with AGUUGACGACGGGAGCUCCAGCAAUGUGAAAUGGACAGAAGGGCAGAGCAA [C6A U7C C9A U10C C24A A25U], AGUUAGGGAUGGGAGCUCCAGCACAGACAAAUGGACAGAAGGGCAGAGCAA [G5A C6G U7G C9A U27A G28C] is lower in “exon inclusion enrichment index” value: 2.96 for the first, 0.0045 for the second.

First: AGUUAGGGAUGGGAGCUCCAGCGUAGUGAAAUGGACAGAAGGGCAGAGCAA [G5A C6G U7G C9A A23G C24U]
Second: AGUUUCUUUUGGGAGCUCCAGCACAGUGAAAUGAGCAGAAGGGCAGAGCAA [G5U G8U C9U G34A A35G]
The “exon inclusion enrichment index” value of the first is lower: 0.000891 for the first, 0.0238 for the second.

First: AGUUCUUCUCGGGAGCUCCAGCACAGUGAAAUGGACAGAAGGGGGGAGCAA [G5C C6U G8C C9U U10C C44G A45G]
Second: AGUUACCACCGGGAGCUCCAGCACAGUGAAAUGGAUAGAAGGGCAGAGCAA [G5A U7C G8A U10C C36U]
The “exon inclusion enrichment index” value of the first is lower: 0.398 for the first, 0.719 for the second.

First: AGUUGCUGCUGGGAGCUCCAGCACUUUGAAAUGGACAGAAGGGCAGAGCAA [A25U G26U]
Second: AGUUAUAUAUGGGAGCUCCAGCACAGUGAAAUGGACAGACUGGCAGAGCAA [G5A C6U U7A G8U C9A A40C G41U]
The “exon inclusion enrichment index” value of the first is higher: 0.0827 for the first, 0.0189 for the second.

Compared with AGUUAGGGAUGGGAGCUUCAGCACAGUGAAAUGGACAGAAGGGCAGAGCAA [G5A C6G U7G C9A C18U], AGUUUCUUUUGGGAGCUCCAGCACGCUGAAAUGGACAGAAGGGCAGAGCAA [G5U G8U C9U A25G G26C] is higher in “exon inclusion enrichment index” value: 0.000744 for the first, 0.74 for the second.

Compared with AGUUCUUCUCGGGAGCUCCAGCACAGUGAAAUGGACAGAAGAGCAGAGCAA [G5C C6U G8C C9U U10C G42A], AGUUCACACAGGGAGCUCCAGCACAUGGAAAUGGACAGAAGGGCAGAGCAA [G5C C6A U7C G8A U10A G26U U27G] is lower in “exon inclusion enrichment index” value: 3.34 for the first, 0.355 for the second.

Going from AGUUAGCCAUGGGAGCUCCAGCACAGUGAAAUGGACAGAAGGGCAGAGCAA [G5A C6G U7C G8C C9A] to AGUUGACGACGGGAGCUCCAGCACAGUGAAAUGGACAGAUAGGCAGAGCAA [C6A U7C C9A U10C A40U G41A], the “exon inclusion enrichment index” value rises from 0.0805 to 0.347.

Going from AGUUGCUGCUGGGAGCUUGAGCACAGUGAAAUGGACAGAAGGGCAGAGCAA [C18U C19G] to AGUUCGCGCCGGGAGCUCCAGCACAGGUAAAUGGACAGAAGGGCAGAGCAA [G5C C6G U7C U10C U27G G28U], the “exon inclusion enrichment index” value falls from 0.995 to 0.0303.

Going from AGUUGCUGCUGGGAGGGCCAGCACAGUGAAAUGGACAGAAGGGCAGAGCAA [C16G U17G] to AGUUGAAGAAGGGAGCUCCAGCACAGUGAAAUGGACAGAAGGCAAGAGCAA [C6A U7A C9A U10A G43C C44A], the “exon inclusion enrichment index” value rises from 0.0697 to 2.09.

Going from AAAUAUAUAUGGGAGCUCCAGCACAGUGAAAUGGACAGAAGGGCAGAGCAA [G2A U3A G5A C6U U7A G8U C9A] to AGUUCUUCUCGGGAGCUCCAGCACAGUGAAAUGGACAGAAGCUCAGAGCAA [G5C C6U G8C C9U U10C G42C G43U], the “exon inclusion enrichment index” value rises from 0.0687 to 2.87.

Going from AGUUAGGGAUGGGAGCCUCAGCACAGUGAAAUGGACAGAAGGGCAGAGCAA [G5A C6G U7G C9A U17C C18U] to AGUUGAAGAAGGGAGCUCCAGCACAGUGAAAUGGACAGAAGUUCAGAGCAA [C6A U7A C9A U10A G42U G43U], the “exon inclusion enrichment index” value rises from 0.00126 to 1.61.

First: AGUUCUUCUCGGGAGCUCCAGCACAGUGAAAUGGACAGAAGGCUAGAGCAA [G5C C6U G8C C9U U10C G43C C44U]
Second: AGUUGAAGAAGGGAGCUCCAGCACAGUGAAAUGGACAGCUGGGCAGAGCAA [C6A U7A C9A U10A A39C A40U]
The “exon inclusion enrichment index” value of the first is higher: 1.6 for the first, 0.533 for the second.

Compared with AGUUGAAGAAGGGAGCUCCAGCACAGUGAAAUGGACAGAAGGGGCGAGCAA [C6A U7A C9A U10A C44G A45C], AGUUCUUCUCGGGAGCUCCAGCACAGUGAAAUGGACAGACCGGCAGAGCAA [G5C C6U G8C C9U U10C A40C G41C] is higher in “exon inclusion enrichment index” value: 1.44 for the first, 2.97 for the second.

Going from AGUUAUAUAUGGGAGCUCCAGCACAGUGGAAUGGACAGAAGGGCAGAGCAA [G5A C6U U7A G8U C9A A29G] to AGUUCACACAGGGAGCUCCAGCACAGUGAAAUAGACAGAAGGGCAGAGCAA [G5C C6A U7C G8A U10A G33A], the “exon inclusion enrichment index” value falls from 0.164 to 0.00667.

First: AGUUACCACCGGGAGCUCCAGCACAGUGAAAUGGACAGCUGGGCAGAGCAA [G5A U7C G8A U10C A39C A40U]
Second: AGUUGACGACGGGAGCUCCAGCACAGUGAAAUGGCCAGAAGGGCAGAGCAA [C6A U7C C9A U10C A35C]
The “exon inclusion enrichment index” value of the first is lower: 1.28 for the first, 1.54 for the second.

Compared with AGUUACGGAUGGGAGCUCCAGCACAGUGAAAUGGACAGAAGGGCAGAGCAA [G5A U7G C9A], AGUCCACGACGGGAGCUCCAGCACAGUGAAAUGGACAGAAGGGCAGAGCAA [U4C G5C C6A U7C C9A U10C] is higher in “exon inclusion enrichment index” value: 1.5 for the first, 3.54 for the second.

With AGUUACCACCGGGAGCUCCAGCACAGUGAAAUGGACAGAAGGCAAGAGCAA [G5A U7C G8A U10C G43C C44A] the “exon inclusion enrichment index” value was 3.61.
